Source: patent US20260250410A1, “ANTIBODY AND USE THEREOF” (SICHUAN HUIYU PHARMACEUTICAL CO., LTD., priority 2022, published 2026)
Changes are numbered by the printed parent chain.

B1: 6A7: anti-CDCP1 murine monoclonal antibody (hybridoma); VH SEQ ID NO: 243, VL SEQ ID NO: 294 (antibody, V domains shown)
VH: EVQLKESGAELVRPGASVKVSCKASGYSFTSYWMNWVKQRPGQGLEWIGMIHPSDSETKLNQKFRDRASLTVDKSSSTAYMQLSSPTSEDSAVYYCTINYESFYYAMDYWGQGTTVTVSS
VL: DIVMTQSPASLAVSLGQRATISCRASKSVSTSGYSYMHWYQQKPGQPPKLLLYLASNLESGVPARFSGSGSGADFTLNIHPVEEEDAATYYCLHSRELPYTFGGGTKLEIK
modifications: 6A7 heavy chain variable region; 6A7 light chain variable region
B2: 3C11: anti-CDCP1 murine monoclonal antibody (hybridoma); VH SEQ ID NO: 240, VL SEQ ID NO: 291 (antibody, V domains shown)
VH: EVQLQQSGTVLARPGASVKMSCKASGYNFISYWLHWIKQRPGQGLEWIGGIYPGNTDTTYNQKFKGKAKVTAVTSATTAYMELSSLTNEDSAVYYCIRYDYDRGMDYWGQGTTVTVSS
VL: DIQMTQSPSSFSVSLGDRVTITCRASEDIYYRLAWYQQKPGNAPRLLISGATALETGVPSRFSGSGSGKDYTLSITSLQTEDVATYYCQHYWNIPWTFGGGTKLEIK
modifications: 3C11 heavy chain variable region; 3C11 light chain variable region
B3: 3B12H5: anti-CDCP1 murine monoclonal antibody (hybridoma); VH SEQ ID NO: 239, VL SEQ ID NO: 290 (antibody, V domains shown)
VH: EVQLQQSGTVLARPGASVKMSCKASGYSFTIYWVHWVKQRPGQGLEWIGAVYPGNDDTSYNQNFKGKAKLTAVTSATTAYMELSSLTIDDSAVYYCTRHTYDEVFDYWGQGTTVTVSS
VL: B2 VL with Q3V, F11L, R24K, A51G, A53N, T56A, V58I, T85I, I94T
modifications: 3B12H9/3B12H5 heavy chain variable region; 3B12H5 light chain variable region
B4: 8E5: anti-CDCP1 murine monoclonal antibody (hybridoma); VH SEQ ID NO: 258, VL SEQ ID NO: 308 (antibody, V domains shown)
VH: EVQLKESGPELKKPGETVKISCKASGYTLTDFSMHWLKQAPGKGLKWMGWINTETGAPTYADDFKGRFALSLDTSANTAYLQINNLKNEDTATYFCSRGRDYDPHFDYWGQGTTVTVSS
VL: EIVLTQSPATLSVTPGDRVSLSCRASQSISDFLHWYQQRSHESPRLLIKYASQSISGIPSRFGGSGSGSDFTLNINTVEPEDVGMYYCQSAHSFPYTFGGGTKLEIK
modifications: 8E5 heavy chain variable region; 8E5 light chain variable region
B5: G10F6: anti-CDCP1 murine monoclonal antibody (hybridoma); VH SEQ ID NO: 256, VL SEQ ID NO: 306 (antibody, V domains shown)
VH: EVKLVESGPGILQPSQTLSLTCSFSGFSLSTSGMGVSWVRQPSGKGLEWLAHIYWDDDKRYNPSLKGRLTISKDTPRNQVFLEITSVDTTDTATYYCARVPGNWDEDAMDYWGQGTTVTVSS
VL: DIQMTQSPLSLPVSLGDQASISCRSSQNIVHTNGNTYLEWYLQKVGQSPKLLIYKVSNRFSGVPDRFSGSGSGTDFTLKISRVEAEDLGVYYCFQGSHVPYTFGGGTKLEIK
modifications: G10F6 heavy chain variable region; G10F6 light chain variable region
B6: 14A10C5: anti-CDCP1 murine monoclonal antibody (hybridoma); VH SEQ ID NO: 257, VL SEQ ID NO: 307 (antibody, V domains shown)
VH: EVKLVESGPGILQPSQTLSLTCSFSGFSLSTSGMGVSWIRQPSGKGLEWLAHIYWDDEKRYNPSLKSRLTISKDTSSNQVFLKITSVDTADTATYYCAREGSANWEAMDYWGQGTTVTVSS
VL: B5 VL with Q3V, S7A, P8A, H31Y, N35I, V45P, G73A, G96S, Y101W
modifications: 14A10C5 heavy chain variable region; 14A10C5 light chain variable region

Legend:
Format in all cases: cell-based, human
[1] = system: MDA-MB-231 cells; assay: Effect of antibody on tumor cell proliferation (CellTiter-Glo); conditions: MDA-MB-231, 96 h
Experimental: (§1) 3000 cells (breast cancer MDA-MB-231, prostate cancer PC-3 cells)/well were plated onto 96-well plates overnight, an antibody at a final concentration of 500 nM to 0.00128 nM (100 nM to 0.000256 nM, 100, 20, 4, 0.8, 0.16, 0.032, 0.0064, 0.00128, 0.000256 nM, respectively) was added; after a 5-fold dilution across 9 concentration points and culturing in a CO2 incubator at 37° C. for 96 h, half of the medium (100 μL) was discarded, and 100 μL of CellTiter-Glo Luminescent Cell Viability assay reagent (Promega, cat #G7570) was added to detect signal values on a BMG microplate reader. The inhibition of antibody on tumor cell growth was calculated by graphpad fitting based on the signal value and antibody concentration.

[2] = system: PC-3 cells; assay: as above; conditions: PC-3, 96 h
Experimental: as §1

[3] = system: MDA-MB-231 cells; assay: Transwell tumor cell migration experiment; conditions: MDA-MB-231, antibody 10 μg/ml
Experimental: In order to determine the effect of antibodies on tumor cell metastasis, the migration ability of tumor cells was examined in this study according to a transwell experiment. The specific cell migration experiment involved culturing and collecting MDA-MB-231 cells, washing them once with PBS, adjusting the density to 8×10^5 cells/mL, adding the antibody to be tested to the cells such that the working concentration thereof was 10 μg/ml, co-incubating for 30 mins, adding a cell suspension to the upper chamber of the transwell chamber, placing the transwell chamber in the incubator for 12-48 h, then removing the chamber (transwell chamber, to examine cell migration ability), immobilizing the cells, staining the cells with crystal violet for 15 mins, washing, air drying, mounting, and taking photos of 4-5 fields of view under a microscope, and counting the number or area of the stained cells using imageJ analysis software, the number or area was used as the basis for determining tumor cell migration.

[4] = system: MDA-MB-231 cells; assay: Endocytosis capacity of murine monoclonal antibody (flow cytometry internalization); conditions: antibody 1.5 μg/mL; for Internalization MDA-MB-231 (%) 0.5 h: MDA-MB-231, 0.5 h at 37° C.; for Internalization MDA-MB-231 (%) 1 h: MDA-MB-231, 1 h at 37° C.; for Internalization MDA-MB-231 (%) 2 h: MDA-MB-231, 2 h at 37° C.
Experimental: (§2) The endocytosis capacity of the antibody was detected for 0.5 to 2 hours. MDA-MB-231 and PC3 cells were subjected to digestion with 5 mM EDTA, and plated at 4×10^4 cells/well after cell counting. After adding an Fc blocker (Human TruStain FcX™, Biolegend, 422302) and blocking at room temperature for 10 mins, a test antibody (1.5 μg/mL) was added, and the mixture was incubated at 4° C. for 30 mins, centrifuged, and washed twice with PBS+2% FBS, then the cells were divided into four equal portions (labeled as 0 h, 0.5 h, 1 h, 2 h), cells labeled as 0.5 h, 1 h, 2 h time points were added to a cell culture medium at 200 µL/well, and cultured at 37° C. for 0.5 h, 1 h, 2 h, respectively. Cells at 0 h point were centrifuged to remove supernatant, a secondary antibody (PE anti-human IgG Fc Antibody, Biolegend, 410708) was added, and the mixture was incubated at 4° C. for 30 mins, centrifuged, and washed twice with PBS+2% FBS, and detection was performed using a flow cytometer. After incubation of cells labeled as 0.5 h, 1 h, and 2 h points at 37° C. was completed, a secondary antibody was added (in the same steps as those at 0 h point), Geo-MFI of the signal under the same voltage was collected as detection signal at 0 h, and antibody internalization rate was calculated according to the following equation: Internalization (%)=(Geo-MFI (0 h)-Geo-MFI (0.5, 1, 2 h))/Geo-MFI (0 h)×100%.

[5] = system: PC3 cells; assay: as above; conditions: antibody 1.5 μg/mL; for Internalization PC3 (%) 0.5 h: PC3, 0.5 h at 37° C.; for Internalization PC3 (%) 1 h: PC3, 1 h at 37° C.; for Internalization PC3 (%) 2 h: PC3, 2 h at 37° C.
Experimental: as §2

Row | Molecule | effect on tumor cell growth (FIG. 4a) [1] | effect on tumor cell growth (FIG. 4b) [2] | effect on tumor cell migration (transwell, FIG. 4c) [3] | Internalization MDA-MB-231 (%) 0.5 h [4] [%] | Internalization MDA-MB-231 (%) 1 h [4] [%] | Internalization MDA-MB-231 (%) 2 h [4] [%] | Internalization PC3 (%) 0.5 h [5] [%] | Internalization PC3 (%) 1 h [5] [%] | Internalization PC3 (%) 2 h [5] [%]
1 | B1 | did not exhibit an effect on tumor cell growth | did not exhibit an effect on tumor cell growth | better capability to inhibit tumor cell migration than SEQ135 | 28.97 | 43.77 | 58.78 | 22.99 | 35.14 | 49.86
2 | B2 | did not exhibit an effect on tumor cell growth | did not exhibit an effect on tumor cell growth | better capability to inhibit tumor cell migration than SEQ135 | 28.50 | 36.16 | 52.23 | 28.45 | 39.70 | 59.90
3 | B3 | did not exhibit an effect on tumor cell growth | did not exhibit an effect on tumor cell growth | better capability to inhibit tumor cell migration than SEQ135 | 20.76 | 29.93 | 49.69 | 16.54 | 30.28 | 50.50
4 | B4 | did not exhibit an effect on tumor cell growth | did not exhibit an effect on tumor cell growth | better capability to inhibit tumor cell migration than SEQ135 | 24.32 | 38.20 | 53.26 | 6.54 | 17.17 | 42.94
5 | B5 | did not exhibit an effect on tumor cell growth | did not exhibit an effect on tumor cell growth | better capability to inhibit tumor cell migration than SEQ135 | 34.49 | 50.70 | 67.02 | 3.36 | 20.68 | 54.36
6 | B6 |  |  | better capability to inhibit tumor cell migration than SEQ135 |  |  | 39.23 |  |  | 51.73
